This is an account of results in patent US20230416365A1 (Hoffmann-La Roche, published 2023).

The target of experiment [1] is T1, human CD28 on CHO cells (parental cell line CHO-k1 ATCC #CCL-61, modified to stably overexpress human CD28) (human, UniProt P10747 19-220).
T1 construct: also called hu CD28; CHO-hCD28
The experiment in a line: flow cytometry on CHOk1-CD28 cells.

Experiment [2] concerns the target T2, human CD19 on Nalm6 B cells (human, UniProt P15391 20-556).
T2 sequence: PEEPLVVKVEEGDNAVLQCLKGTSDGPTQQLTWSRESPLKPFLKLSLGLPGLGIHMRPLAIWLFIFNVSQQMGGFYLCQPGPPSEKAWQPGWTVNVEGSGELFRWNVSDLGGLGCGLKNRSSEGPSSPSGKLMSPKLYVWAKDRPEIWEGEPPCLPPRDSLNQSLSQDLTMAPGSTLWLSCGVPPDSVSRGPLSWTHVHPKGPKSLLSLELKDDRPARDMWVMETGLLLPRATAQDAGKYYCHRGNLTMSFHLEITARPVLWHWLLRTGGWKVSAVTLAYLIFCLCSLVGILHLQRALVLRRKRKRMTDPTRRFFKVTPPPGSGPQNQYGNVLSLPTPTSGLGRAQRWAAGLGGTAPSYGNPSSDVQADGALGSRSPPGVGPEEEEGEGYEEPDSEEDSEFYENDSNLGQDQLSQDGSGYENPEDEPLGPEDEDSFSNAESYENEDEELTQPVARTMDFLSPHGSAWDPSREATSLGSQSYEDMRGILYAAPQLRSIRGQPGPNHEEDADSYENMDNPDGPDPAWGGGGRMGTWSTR
Kind of experiment: flow cytometry on Nalm6 B cells.

Experiment [3] concerns the target human FAP on 3T3-huFAP cells (clone 19) (human, UniProt Q12884 1-760). Kind of experiment: flow cytometry on 3T3-huFAP cells, median fluorescence intensity (axis MFI APC).

B1: CD19 (8B8-2B11)-CD28 (SA_v8) 1+1 (Molecule 18C) (bispecific antibody, human IgG1, kappa, L234A L235A)
heavy 1: not shown
light 1: not shown
heavy 2: DIVMTQTPLSLSVTPGQPASISCKSSQSLETSTGTTYLNWYLQKPGQSPQLLIYRVSKRFSGVPDRFSGSGSGTDFTLKISRVEAEDVGVYYCLQLLEDPYTFGQGTKLEIKSSASTKGPSVFPLAPSSKSTSGGTAALGCLVKDYFPEPVTVSWNSGALTSGVHTFPAVLQSSGLYSLSSVVTVPSSSLGTQTYICNVNHKPSNTKVDKKVEPKSCDKTHTCPPCPAPEAAGGPSVFLFPPKPKDTLMISRTPEVTCVVVDVSHEDPEVKFNWYVDGVEVHNAKTKPREEQYNSTYRVVSVLTVLHQDWLNGKEYKCKVSNKALGAPIEKTISKAKGQPREPQVCTLPPSRDELTKNQVSLSCAVKGFYPSDIAVEWESNGQPENNYKTTPPVLDSDGSFFLVSKLTVDKSRWQQGNVFSCSVMHEALHNHYTQKSLSLSP
light 2: QVQLVQSGAEVKKPGASVKVSCKASGYTFTDYIMHWVRQAPGQGLEWMGYINPYNDGSKYTEKFQGRVTMTSDTSISTAYMELSRLRSDDTAVYYCARGTYYYGPQLFDYWGQGTTVTVSSASVAAPSVFIFPPSDEQLKSGTASVVCLLNNFYPREAKVQWKVDNALQSGNSQESVTEQDSKDSTYSLSSTLTLSKADYEKHKVYACEVTHQGLSSPVTKSFNRGEC
notes: huIgG1 PG-LALA CrossFab; also called P1AF0175; CD19-CD28 v8
On to B1, for which the EC50 in experiment [1] was 232 nM; in experiment [2], 0.232 nM.

B2: CD19 (8B8-2B11)-CD28 (SA_v15) 1+1 (Molecule 18B) (bispecific antibody, human IgG1, kappa, L234A L235A)
heavy 1: not shown
light 1: not shown
heavy 2: DIVMTQTPLSLSVTPGQPASISCKSSQSLETSTGTTYLNWYLQKPGQSPQLLIYRVSKRFSGVPDRFSGSGSGTDFTLKISRVEAEDVGVYYCLQLLEDPYTFGQGTKLEIKSSASTKGPSVFPLAPSSKSTSGGTAALGCLVKDYFPEPVTVSWNSGALTSGVHTFPAVLQSSGLYSLSSVVTVPSSSLGTQTYICNVNHKPSNTKVDKKVEPKSCDKTHTCPPCPAPEAAGGPSVFLFPPKPKDTLMISRTPEVTCVVVDVSHEDPEVKFNWYVDGVEVHNAKTKPREEQYNSTYRVVSVLTVLHQDWLNGKEYKCKVSNKALGAPIEKTISKAKGQPREPQVCTLPPSRDELTKNQVSLSCAVKGFYPSDIAVEWESNGQPENNYKTTPPVLDSDGSFFLVSKLTVDKSRWQQGNVFSCSVMHEALHNHYTQKSLSLSP
light 2: QVQLVQSGAEVKKPGASVKVSCKASGYTFTDYIMHWVRQAPGQGLEWMGYINPYNDGSKYTEKFQGRVTMTSDTSISTAYMELSRLRSDDTAVYYCARGTYYYGPQLFDYWGQGTTVTVSSASVAAPSVFIFPPSDEQLKSGTASVVCLLNNFYPREAKVQWKVDNALQSGNSQESVTEQDSKDSTYSLSSTLTLSKADYEKHKVYACEVTHQGLSSPVTKSFNRGEC
notes: huIgG1 PG-LALA CrossFab; also called P1AE9040; CD19-CD28 v15
Consider B2, for which the EC50 was found to be 15.6 nM in experiment [1] and 0.416 nM in experiment [2].

B3: CD19 (8B8-2B11)-CD28 (SA_v27) 1+1 (Molecule E of Example 18; 18E) (bispecific antibody, human IgG1, kappa, L234A L235A)
heavy 1: not shown
light 1: not shown
heavy 2: DIVMTQTPLSLSVTPGQPASISCKSSQSLETSTGTTYLNWYLQKPGQSPQLLIYRVSKRFSGVPDRFSGSGSGTDFTLKISRVEAEDVGVYYCLQLLEDPYTFGQGTKLEIKSSASTKGPSVFPLAPSSKSTSGGTAALGCLVKDYFPEPVTVSWNSGALTSGVHTFPAVLQSSGLYSLSSVVTVPSSSLGTQTYICNVNHKPSNTKVDKKVEPKSCDKTHTCPPCPAPEAAGGPSVFLFPPKPKDTLMISRTPEVTCVVVDVSHEDPEVKFNWYVDGVEVHNAKTKPREEQYNSTYRVVSVLTVLHQDWLNGKEYKCKVSNKALGAPIEKTISKAKGQPREPQVCTLPPSRDELTKNQVSLSCAVKGFYPSDIAVEWESNGQPENNYKTTPPVLDSDGSFFLVSKLTVDKSRWQQGNVFSCSVMHEALHNHYTQKSLSLSP
light 2: QVQLVQSGAEVKKPGASVKVSCKASGYTFTDYIMHWVRQAPGQGLEWMGYINPYNDGSKYTEKFQGRVTMTSDTSISTAYMELSRLRSDDTAVYYCARGTYYYGPQLFDYWGQGTTVTVSSASVAAPSVFIFPPSDEQLKSGTASVVCLLNNFYPREAKVQWKVDNALQSGNSQESVTEQDSKDSTYSLSSTLTLSKADYEKHKVYACEVTHQGLSSPVTKSFNRGEC
notes: huIgG1 PG-LALA CrossFab; also called P1AF0378; CD19-CD28 v27
Regarding B3, the values for the EC50 in experiment [1] and in experiment [2] were 10.8 nM and 0.368 nM, respectively.

B4: CD19 (8B8-2B11)-CD28 (SA_v29) 1+1 (Molecule 18A) (bispecific antibody, human IgG1, kappa, L234A L235A)
heavy 1: not shown
light 1: not shown
heavy 2: DIVMTQTPLSLSVTPGQPASISCKSSQSLETSTGTTYLNWYLQKPGQSPQLLIYRVSKRFSGVPDRFSGSGSGTDFTLKISRVEAEDVGVYYCLQLLEDPYTFGQGTKLEIKSSASTKGPSVFPLAPSSKSTSGGTAALGCLVKDYFPEPVTVSWNSGALTSGVHTFPAVLQSSGLYSLSSVVTVPSSSLGTQTYICNVNHKPSNTKVDKKVEPKSCDKTHTCPPCPAPEAAGGPSVFLFPPKPKDTLMISRTPEVTCVVVDVSHEDPEVKFNWYVDGVEVHNAKTKPREEQYNSTYRVVSVLTVLHQDWLNGKEYKCKVSNKALGAPIEKTISKAKGQPREPQVCTLPPSRDELTKNQVSLSCAVKGFYPSDIAVEWESNGQPENNYKTTPPVLDSDGSFFLVSKLTVDKSRWQQGNVFSCSVMHEALHNHYTQKSLSLSP
light 2: QVQLVQSGAEVKKPGASVKVSCKASGYTFTDYIMHWVRQAPGQGLEWMGYINPYNDGSKYTEKFQGRVTMTSDTSISTAYMELSRLRSDDTAVYYCARGTYYYGPQLFDYWGQGTTVTVSSASVAAPSVFIFPPSDEQLKSGTASVVCLLNNFYPREAKVQWKVDNALQSGNSQESVTEQDSKDSTYSLSSTLTLSKADYEKHKVYACEVTHQGLSSPVTKSFNRGEC
notes: huIgG1 PG-LALA CrossFab; also called P1AE8002; CD19-CD28 v29
Turning to B4, the EC50 in experiment [1] is 6.65 nM; in experiment [2], 0.274 nM.

B5: CD19 (8B8-2B11)-CD28 (SA_v11) 1+1 (Molecule D of Example 18; 18D) (bispecific antibody, human IgG1, kappa, L234A L235A)
heavy 1: not shown
light 1: not shown
heavy 2: DIVMTQTPLSLSVTPGQPASISCKSSQSLETSTGTTYLNWYLQKPGQSPQLLIYRVSKRFSGVPDRFSGSGSGTDFTLKISRVEAEDVGVYYCLQLLEDPYTFGQGTKLEIKSSASTKGPSVFPLAPSSKSTSGGTAALGCLVKDYFPEPVTVSWNSGALTSGVHTFPAVLQSSGLYSLSSVVTVPSSSLGTQTYICNVNHKPSNTKVDKKVEPKSCDKTHTCPPCPAPEAAGGPSVFLFPPKPKDTLMISRTPEVTCVVVDVSHEDPEVKFNWYVDGVEVHNAKTKPREEQYNSTYRVVSVLTVLHQDWLNGKEYKCKVSNKALGAPIEKTISKAKGQPREPQVCTLPPSRDELTKNQVSLSCAVKGFYPSDIAVEWESNGQPENNYKTTPPVLDSDGSFFLVSKLTVDKSRWQQGNVFSCSVMHEALHNHYTQKSLSLSP
light 2: QVQLVQSGAEVKKPGASVKVSCKASGYTFTDYIMHWVRQAPGQGLEWMGYINPYNDGSKYTEKFQGRVTMTSDTSISTAYMELSRLRSDDTAVYYCARGTYYYGPQLFDYWGQGTTVTVSSASVAAPSVFIFPPSDEQLKSGTASVVCLLNNFYPREAKVQWKVDNALQSGNSQESVTEQDSKDSTYSLSSTLTLSKADYEKHKVYACEVTHQGLSSPVTKSFNRGEC
notes: huIgG1 PG-LALA CrossFab; also called P1AF0377; CD19-CD28 v11
For the molecule B5, the EC50 was found to be 150 nM in experiment [1] and 0.363 nM in experiment [2].

B6: FAP(4B9)-CD28(SA) 1+2 format (Molecule E) (bispecific antibody, human IgG1, kappa, L234A L235A)
heavy 1: not shown
heavy 2: QVQLVQSGAEVKKPGASVKVSCKASGYTFTSYYIHWVRQAPGQGLEWIGCIYPGNVNTNYNEKFKDRATLTVDTSISTAYMELSRLRSDDTAVYFCTRSHYGLDWNFDVWGQGTTVTVSSASTKGPSVFPLAPSSKSTSGGTAALGCLVKDYFPEPVTVSWNSGALTSGVHTFPAVLQSSGLYSLSSVVTVPSSSLGTQTYICNVNHKPSNTKVDKKVEPKSCDKTHTCPPCPAPEAAGGPSVFLFPPKPKDTLMISRTPEVTCVVVDVSHEDPEVKFNWYVDGVEVHNAKTKPREEQYNSTYRVVSVLTVLHQDWLNGKEYKCKVSNKALGAPIEKTISKAKGQPREPQVCTLPPSRDELTKNQVSLSCAVKGFYPSDIAVEWESNGQPENNYKTTPPVLDSDGSFFLVSKLTVDKSRWQQGNVFSCSVMHEALHNHYTQKSLSLSPGGGGGSGGGGSGGGGSGGGGSEIVLTQSPGTLSLSPGERATLSCRASQSVTSSYLAWYQQKPGQAPRLLINVGSRRATGIPDRFSGSGSGTDFTLTISRLEPEDFAVYYCQQGIMLPPTFGQGTKVEIK
light: not shown
notes: bivalent anti-CD28, monovalent anti-FAP (VH and VL fused to the C-termini of the Fc chains); also called P1AD9011; FAP-CD28 1+2 SA
With B6, in experiment [3], the “EC50 (read off the curve)” value was approximately 4 nM.
